Experiment [1] concerns the target T1, PD-L1 (Homo sapiens, UniProt Q9NZQ7). The experiment can be described thus: ITC; MicroCal iTC200, 25 °C, PBS pH 7.4; peptide at 500 μM in the syringe, PD-L1 or HSC70 at 2.5 μM in the sample chamber; 20 injections of 2 μL. For orientation: Isothermal titration calorimetry measures the heat released or taken up as one component is titrated into another.
Target sequence in this assay (Q9NZQ7 19-290): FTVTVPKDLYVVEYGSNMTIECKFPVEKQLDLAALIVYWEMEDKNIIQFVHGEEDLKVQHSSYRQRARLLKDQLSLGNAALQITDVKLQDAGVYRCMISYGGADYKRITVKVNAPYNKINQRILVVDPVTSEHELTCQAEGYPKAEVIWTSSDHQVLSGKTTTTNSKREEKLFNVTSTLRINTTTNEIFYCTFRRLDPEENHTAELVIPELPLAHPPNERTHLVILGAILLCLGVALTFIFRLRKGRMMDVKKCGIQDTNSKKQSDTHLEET
Experiment [2] deals with T2, HSC70 (Homo sapiens, UniProt P11142). The experiment is described as above.
Target sequence in this assay (P11142 whole entry): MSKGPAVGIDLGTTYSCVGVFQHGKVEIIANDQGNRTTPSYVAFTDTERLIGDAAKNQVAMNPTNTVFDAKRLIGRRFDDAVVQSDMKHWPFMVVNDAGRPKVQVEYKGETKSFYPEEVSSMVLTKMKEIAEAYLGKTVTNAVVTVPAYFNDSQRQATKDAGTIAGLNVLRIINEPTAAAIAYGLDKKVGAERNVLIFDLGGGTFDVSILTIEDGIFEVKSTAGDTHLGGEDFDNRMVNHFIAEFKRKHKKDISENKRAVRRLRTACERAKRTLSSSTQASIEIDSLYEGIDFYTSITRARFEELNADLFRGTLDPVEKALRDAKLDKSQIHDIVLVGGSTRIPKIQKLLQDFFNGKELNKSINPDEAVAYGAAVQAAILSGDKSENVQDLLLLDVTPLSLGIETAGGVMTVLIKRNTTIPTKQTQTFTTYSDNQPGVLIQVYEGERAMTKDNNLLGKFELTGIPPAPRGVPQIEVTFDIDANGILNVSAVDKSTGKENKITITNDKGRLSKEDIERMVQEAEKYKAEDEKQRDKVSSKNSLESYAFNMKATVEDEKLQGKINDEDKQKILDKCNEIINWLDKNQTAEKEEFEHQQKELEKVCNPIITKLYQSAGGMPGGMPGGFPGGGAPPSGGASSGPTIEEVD
Experiment [3] has as its target T1, PD-L1. The experiment can be described thus: Isothermal titration calorimetry (ITC), binding to PD-L1. The settings on record: 25 °C, PBS pH 7.4, peptide 500 μM in syringe, protein 2.5 μM in cell, 20 injections of 2 μL. On the procedure: (§1) Experiments were conducted at 25 °C on a MicroCal iTC200 isothermal titration calorimeter (GE Healthcare) in PBS buffer (pH 7.4). The titration syringe was loaded with peptide a or scrambled peptide prepared at 500 μM, while the sample chamber contained PD-L1 or HSC70 protein at 2.5 μM. The titration consisted of 20 successive injections of 2 μL each, with an equilibration interval of 120 seconds between injections. The average baseline value was calculated from data points obtained under saturation conditions. Following baseline correction, binding constants were determined using the fitting models provided in MicroCal Origin software.
Target sequence in this assay (Q9NZQ7 19-290, species assumed): as the sequence (Q9NZQ7 19-290) above

The target in experiment [4] is T2, HSC70. The experiment can be described thus: Isothermal titration calorimetry (ITC), binding to HSC70. The settings on record: 25 °C, PBS pH 7.4, peptide 500 μM in syringe, protein 2.5 μM in cell, 20 injections of 2 μL. The protocol: as §1
Target sequence in this assay (P11142 whole entry, species assumed): as the sequence (P11142 whole entry) above

Experimental findings from paper PMC12605528, “A bifunctional peptide–selenium nanocomposite for lysosomal degradation of PD-L1 and enhanced cancer immunotherapy” (Frontiers in Immunology, 2025) are described below.

The Kd is the constant that tells how readily two partners part at equilibrium. Low values mean tighter binding, high ones weaker binding. “bifunctional peptide a (CKFERQ-PEG3-nyskptdrqyhf)”: the results for the Kd in the experiment with PD-L1 [1] and in the experiment with HSC70 [2] were 410 nM and 1280 nM, respectively.

For the substance “fhyqrdtpksyn-PEG3-QREFKC [mutant peptide with scrambled sequences]”, the “Kd, binding to PD-L1” value at PD-L1 [3] was “no detectable binding”. For the same substance, the “Kd, binding to HSC70” value on HSC70 [4] is “no detectable binding”.
